Reference: paper PMC9613477

Assays:
Assay in all cases: crystal structure; disulfide cross-linked CA hexamers, hanging- or sitting-drop vapour diffusion, data at 100 K, molecular replacement with PDB 3H47
[1] = biological target: SIVmac CA hexamer (P13C, E44C, W182A, M183A) (SIVmac (SIV from macaques))
[2] = biological target: HIV-1(O-group) CA hexamer (A14C, E45C, W185A, M186A) (HIV-1 group O)
[3] = biological target: SIVcpz CA hexamer (P14C, E45C, W184A, M185A) (SIVcpzPtt (SIV of central chimpanzees))
[4] = biological target: HIV-1(M-group) CA Q50Y hexamer (A14C, E45C, Q50Y, W184A, M185A) (HIV-1 group M)

Substance: SIVmac CA hexamer (P13C, E44C, W182A, M183A) (natural protein)
- stoichiometry N [1]: 6

Substance: HIV-1(O-group) CA hexamer (A14C, E45C, W185A, M186A) (natural protein)
- stoichiometry N [2]: 6

Substance: SIVcpz CA hexamer (P14C, E45C, W184A, M185A) (natural protein)
- stoichiometry N [3]: 6

Substance: HIV-1(M-group) CA Q50Y hexamer (A14C, E45C, Q50Y, W184A, M185A) (natural protein)
- stoichiometry N [4]: 6
